Our source for the percent of parent values is publication PMC3948114.

This assay has as its target HLA-B*27:05-KK10 tetramer. As to the kind of experiment: tetramer staining of transfected HEK293 cells. As to conditions: 0.2 μg tetramer; parent: est. 100; read off a plot.
For the substance “FLAG-tagged 3DL1*001 (from UniProt P43629) A167G”, the percent of parent is 76 % of ·001.

With “FLAG-tagged 3DL1*001 (from UniProt P43629) D230A”, the percent of parent was 30 % of ·001.

In the case of “FLAG-tagged 3DL1*001 (from UniProt P43629) E282A”, the percent of parent is 22 % of ·001.

“FLAG-tagged 3DL1*001 (from UniProt P43629) E282Q”: the percent of parent was 44 % of ·001.

For the substance “FLAG-tagged 3DL1*001 (from UniProt P43629) L166A”, the percent of parent is 180 % of ·001.

With “FLAG-tagged 3DL1*001 (from UniProt P43629) L166V”, the percent of parent was 20 % of ·001.

As to “FLAG-tagged 3DL1*001 (from UniProt P43629) M165A”, the percent of parent was 52 % of ·001.

On to “FLAG-tagged 3DL1*001 (from UniProt P43629) P199A”, for which the percent of parent is 10 % of ·001.

Regarding “FLAG-tagged 3DL1*001 (from UniProt P43629) Y200A”, the percent of parent was 8 % of ·001.

In the case of “FLAG-tagged 3DL1*001 (from UniProt P43629) Y200F”, the percent of parent was 36 % of ·001.
